This is an account of results in patent US20210101984A1 (JIANGSU HENGRUI MEDICINE, published 2021).

By Kd is commonly meant the constant that tells how readily two partners part at equilibrium. Broadly, the EC50 (read off the curve) is the concentration giving half of the maximal effect.

Test [1] has as its target T1, murine B7-H3 antigen (R&D cat# 1397-B3-050/CF) (murine, UniProt Q8VE98 29-244).
T1 construct: Commercial protein; also called mouse B7-H3
T1 sequence: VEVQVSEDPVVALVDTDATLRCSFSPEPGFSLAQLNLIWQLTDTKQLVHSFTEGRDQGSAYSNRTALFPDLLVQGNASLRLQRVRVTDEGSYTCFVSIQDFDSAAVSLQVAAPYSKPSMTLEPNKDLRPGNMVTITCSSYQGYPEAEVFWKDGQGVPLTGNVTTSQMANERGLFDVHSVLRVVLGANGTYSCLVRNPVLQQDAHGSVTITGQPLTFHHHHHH
The experiment in a line: SPR (Biacore T200), antibody captured on Protein A chip, antigen in flow, 1:1 Langmuir fit. An excerpt:
A biosensor chip Protein A (Cat. # 29127556, GE) was used to affinity capture a certain amount of antibody to be tested. A series diluted of human 2Ig-B7-H3 antigen (Cat. #1949-B3-050/CF, R&D), human 4Ig-B7-H3 antigen (Cat. #11188-H08H, Sino Biological) or murine B7-H3 antigen (Cat. # 1397-B3-050/CF, R&D) was flowed through the surface of the chip. Real-time reaction signal was detected by using Biacore instrument (Biacore T200, GE), in order to obtain association and dissociation curves. After completion of each cycle of dissociation, the biochip was washed and regenerated with glycine-hydrochloric acid regeneration solution (pH 1.5) (Cat.#BR-1003-54, GE). The buffer used in the experiment was HBS-EP buffer solution (pH 7.4) (Cat. # BR-1001-88, GE).
The experimental data was fitted with BIA evaluation version 4.1 GE software in a (1:1) Langmuir model to obtain affinity values.
A general note: SPR reads the build-up and loss of mass on a sensor chip optically.

Test [2] has as its target B7-H3 on U87MG tumor cells (human) (UniProt Q5ZPR3). In words: flow cytometry on U87MG cells, APC anti-human IgG Fc detection, geometric mean fluorescence. For orientation: Flow cytometry measures light scatter and fluorescence of single cells or particles in a stream.

B7-H3 on U87MG tumor cells (human), sequence (Q5ZPR3 29-534): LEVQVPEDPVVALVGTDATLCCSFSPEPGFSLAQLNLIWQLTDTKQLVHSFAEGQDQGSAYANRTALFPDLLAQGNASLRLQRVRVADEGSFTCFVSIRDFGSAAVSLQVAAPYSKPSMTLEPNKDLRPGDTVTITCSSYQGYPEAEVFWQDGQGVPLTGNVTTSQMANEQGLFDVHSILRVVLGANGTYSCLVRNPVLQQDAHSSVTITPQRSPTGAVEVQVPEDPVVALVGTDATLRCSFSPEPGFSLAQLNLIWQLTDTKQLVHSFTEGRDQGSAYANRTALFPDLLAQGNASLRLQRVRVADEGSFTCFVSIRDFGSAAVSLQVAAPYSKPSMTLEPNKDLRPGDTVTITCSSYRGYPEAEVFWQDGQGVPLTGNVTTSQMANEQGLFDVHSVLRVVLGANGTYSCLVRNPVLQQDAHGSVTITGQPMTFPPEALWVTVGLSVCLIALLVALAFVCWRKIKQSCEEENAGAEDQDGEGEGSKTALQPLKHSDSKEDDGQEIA

B1: h1703-IgG1 (antibody, V domains shown)
VH: QVQLQESGGGLVQPGGSLRLSCAASGFTFSSYAMSWVRQAPGKGLEWVSAISGSGGSTYYADSVKGRYTISRDNSKNTLYLQMNSLRAEDTAVYYCAKGVGPVHALDVWGQGTTVTVSS
VL: DIRLTQSPSSLSASVGDRVTITCRASQSISTYLNWYQQKPGKAPILLINAVSGLQSGVPSRFSGSGSGTHFTLTITSLQPEDFATYYCQQSYSTPMWTFGQGTKVEIKR
notes: Fully human IgG1 with kappa light chain, from an scFv phage library, expressed in HEK293E cells
B1 registered a Kd in test [1] of 502 nM.

B2: h1702-IgG1 (antibody, V domains shown)
VH: QVQLVQSGGGVVQPGTSLRLSCAASGFIFSSSAMHWVRQAPGKGLEWVAVISYDGSNKYYVDSVKGRFTISRDNSKNTLYLQMNSLRAEDTAVYYCARSARLYASFDYWGQGALVTVSS
VL: QTVVTQEPSFSVSPGGTVTLTCGLSSGSVSTSHYPSWYQQTPGQAPRMLIYNTNTRSSGVPDRFSGSILGNKAALTITGAQADDESDYYCAIHVDRDIWVFGGGTKLTVLG
notes: Fully human IgG1 with lambda light chain, from an scFv phage library, expressed in HEK293E cells
For B2, in test [2], the EC50 (read off the curve) is 2 nM. Further, the dissociation constant (Kd) in test [1] came out at 1470 nM.
